Laboratory results: patent US20220396614A1 (DEUTSCHES KREBSFORSCHUNGSZENTRUM, published 2022)

Molecular target: Plasmodium falciparum circumsporozoite protein (PfCSP) on Pf NF54 salivary gland sporozoites (Plasmodium falciparum (NF54))
Test: cell-based or functional assay

B1: monoclonal antibody 2541 (antibody, V domains shown)
VH: QVQLVESGGGVVQPGRSLRLSCAASGFTFSSYGMHWVRQTTGKGLEWVAIIWHDGSKKYYADSVKGRLTISRDNSKNTLYLQMNSLRVEDTALYYCARVGDYSDFKYGAFDIWGQGTMVTVSS
VL: DIQMTQSPSTLSASVGDRVTITCRASQSISSWLAWYQQKPGKAPNLLIYKASTLESGVPSRFSGSGSGTEFTLTISSLQPDDFATYYCQQYNSYWTFGQGTRVEIK
Question: B1 was tested. Which “IC50, in vitro Pf-traversal inhibition assay” value did it give?
Answer: < 1 µg/mL
